According to patent US20210292426A1:

How the values were obtained:
[1] = molecular target: human CD40 expressed on cells (human) (UniProt P25942); assay: flow cytometry, primary human B cells
[2] = molecular target: human CD40 expressed on cells (human) (UniProt P25942); assay: flow cytometry, Raji cells
[3] = molecular target: human CD40 extracellular domain with C-terminal His-AviTag (human) (UniProt P25942); assay: SPR (Biacore), antibody captured, CD40 ECD analyte

B1: P1AD4470 (CD40 IgG1, control) (antibody, from a related filing, V domains shown)
VH: EVQLVESGGGLVQPGGSLRLSCAASGYSFTGYYIHWVRQAPGKGLEWVARVIPNAGGTSYNQKFKGRFTLSVDNSKNTAYLQMNSLRAEDTAVYYCAREGIYWWGQGTLVTVSS
VL: DIQMTQSPSSLSASVGDRVTITCRSSQSLVHSNGNTFLHWYQQKPGKAPKLLIYTVSNRFSGVPSRFSGSGSGTDFTLTISSLQPEDFATYFCSQTTHVPWTFGQGTKVEIKR
- EC50 [1]: 0.333 nM
- EC50 [2]: 0.09 µg/mL
- Kd [3]: 4.6 nM
- koff [3]: 0.00781 s⁻¹
- kon [3]: 1.69e+06 M⁻¹ s⁻¹
